B1: Glutamate receptor 4 (Rattus norvegicus (Rat)), P19493 (parent)
chain: MRIICRQIVLLFSGFWGLAMGAFPSSVQIGGLFIRNTDQEYTAFRLAIFLHNTSPNASEAPFNLVPHVDNIETANSFAVTNAFCSQYSRGVFAIFGLYDKRSVHTLTSFCSALHISLITPSFPTEGESQFVLQLRPSLRGALLSLLDHYEWNCFVFLYDTDRGYSILQAIMEKAGQNGWHVSAICVENFNDVSYRQLLEELDRRQEKKFVIDCEIERLQNILEQIVSVGKHVKGYHYIIANLGFKDISLERFIHGGANVTGFQLVDFNTPMVTKLMDRWKKLDQREYPGSETPPKYTSALTYDGVLVMAETFRSLRRQKIDISRRGNAGDCLANPAAPWGQGIDMERTLKQVRIQGLTGNVQFDHYGRRVNYTMDVFELKSTGPRKVGYWNDMDKLVLIQDMPTLGNDTAAIENRTVVVTTIMESPYVMYKKNHEMFEGNDKYEGYCVDLASEIAKHIGIKYKIAIVPDGKYGARDADTKIWNGMVGELVYGKAEIAIAPLTITLVREEVIDFSKPFMSLGISIMIKKPQKSKPGVFSFLDPLAYEIWMCIVFAYIGVSVVLFLVSRFSPYEWHTEEPEDGKEGPSDQPPNEFGIFNSLWFSLGAFMQQGCDISPRSLSGRIVGGVWWFFTLIIISSYTANLAAFLTVERMVSPIESAEDLAKQTEIAYGTLDSGSTKEFFRRSKIAVYEKMWTYMRSAEPSVFTRTTAEGVARVRKSKGKFAFLLESTMNEYTEQRKPCDTMKVGGNLDSKGYGVATPKGSSLGNAVNLAVLKLNEQGLLDKLKNKWWYDKGECGSGGGDSKDKTSALSLSNVAGVFYILVGGLGLAMLVALIEFCYKSRAEAKRMKLTFSEATRNKARLSITGSVGENGRVLTPDCPKAVHTGTAIRQSSGLAVIASDLP

Variants of: B1
Conditions: with mk08_rat Mapk8, P49185
Chain of mk08_rat Mapk8, P49185 (P49185 whole entry): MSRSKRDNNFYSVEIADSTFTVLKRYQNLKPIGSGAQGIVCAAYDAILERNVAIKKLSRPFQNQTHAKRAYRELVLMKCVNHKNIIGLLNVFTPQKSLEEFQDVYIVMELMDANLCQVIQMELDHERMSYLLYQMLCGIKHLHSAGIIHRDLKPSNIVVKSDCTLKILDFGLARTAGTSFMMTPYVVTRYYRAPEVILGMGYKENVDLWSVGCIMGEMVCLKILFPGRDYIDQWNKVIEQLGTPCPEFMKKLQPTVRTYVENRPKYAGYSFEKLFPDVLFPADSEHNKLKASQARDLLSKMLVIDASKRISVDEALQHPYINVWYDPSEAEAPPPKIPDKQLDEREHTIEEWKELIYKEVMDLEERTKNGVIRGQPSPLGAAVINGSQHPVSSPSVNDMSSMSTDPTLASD

effect of a mutation on the interaction	Variant
disrupting interaction	T855A
